No end group written: not given here.
molecular target: P-glycoprotein (UniProt P08183 1-1280); assay: cell-based or functional assay
Sequence (P08183 whole entry): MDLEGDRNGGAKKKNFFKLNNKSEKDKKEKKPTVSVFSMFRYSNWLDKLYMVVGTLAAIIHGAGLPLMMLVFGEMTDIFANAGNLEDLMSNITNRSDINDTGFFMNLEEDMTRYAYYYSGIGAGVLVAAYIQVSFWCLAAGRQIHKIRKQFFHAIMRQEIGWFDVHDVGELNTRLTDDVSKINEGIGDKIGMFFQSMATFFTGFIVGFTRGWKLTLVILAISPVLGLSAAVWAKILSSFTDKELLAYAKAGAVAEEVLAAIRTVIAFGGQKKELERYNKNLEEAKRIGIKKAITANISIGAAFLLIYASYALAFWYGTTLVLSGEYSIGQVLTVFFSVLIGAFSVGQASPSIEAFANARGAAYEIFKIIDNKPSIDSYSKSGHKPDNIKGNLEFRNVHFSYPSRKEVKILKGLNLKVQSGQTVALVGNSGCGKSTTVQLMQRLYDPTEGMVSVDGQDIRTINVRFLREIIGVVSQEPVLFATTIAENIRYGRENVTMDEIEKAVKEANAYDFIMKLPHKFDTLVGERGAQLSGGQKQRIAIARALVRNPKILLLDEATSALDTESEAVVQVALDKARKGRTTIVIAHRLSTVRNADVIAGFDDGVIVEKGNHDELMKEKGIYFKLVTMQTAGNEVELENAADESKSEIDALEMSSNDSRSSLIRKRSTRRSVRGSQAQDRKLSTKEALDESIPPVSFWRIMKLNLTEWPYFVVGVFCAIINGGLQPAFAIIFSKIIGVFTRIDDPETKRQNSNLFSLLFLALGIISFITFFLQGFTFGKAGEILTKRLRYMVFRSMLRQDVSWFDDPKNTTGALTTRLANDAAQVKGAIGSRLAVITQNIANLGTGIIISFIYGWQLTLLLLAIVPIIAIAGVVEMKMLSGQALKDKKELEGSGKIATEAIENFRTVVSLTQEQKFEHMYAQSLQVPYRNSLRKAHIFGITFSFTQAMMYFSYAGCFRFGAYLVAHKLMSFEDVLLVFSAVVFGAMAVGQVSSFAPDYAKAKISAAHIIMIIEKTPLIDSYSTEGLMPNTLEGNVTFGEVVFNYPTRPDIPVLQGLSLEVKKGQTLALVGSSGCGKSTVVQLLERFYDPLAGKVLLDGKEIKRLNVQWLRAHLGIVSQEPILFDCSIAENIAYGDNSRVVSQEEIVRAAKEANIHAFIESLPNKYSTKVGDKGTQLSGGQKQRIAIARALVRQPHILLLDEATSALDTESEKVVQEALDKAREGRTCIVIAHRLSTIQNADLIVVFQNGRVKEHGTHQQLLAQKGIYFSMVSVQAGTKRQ

Binder | Enhancement ratio of Rhodamine-123 transport against the control, peptide 0.02 mg/ml [ratio] | Enhancement ratio of Rhodamine-123 transport against the control, peptide concentration given as 2 mg/ml (caption: 0.2 mg/mL) [ratio] | Papp of Rhodamine-123 through a Caco-2 monolayer (basolateral to apical), peptide 0.02 mg/ml [cm/s] | Papp of Rhodamine-123 through a Caco-2 monolayer (basolateral to apical), peptide concentration given as 2 mg/ml (caption: 0.2 mg/mL) [cm/s]
DAAAAAA-OH [DAAAAAA-COOH] | 1.2 | 1.4 | 1.3e-05 | 1.51e-05
Ac-AAAAAAD-OH [acetyl-AAAAAAD-COOH] | 0.9 | 1.7 | 1.01e-05 | 1.84e-05
KAAAAAA-NH2 [KAAAAAA-CONH2] | 1 | 1 | 1.08e-05 | 1.05e-05
Ac-AAAAAAK-NH2 [acetyl-AAAAAAK-CONH2] | 0.9 | 1.7 | 1e-05 | 1.82e-05
